Source: the supplement of paper PMC10724198
± gives the standard deviation of the averaged measurements.

How the values were obtained:
Saccharomyces cerevisiae [1] = experiment: protein stability index of tFT-peptide fusion in wild type (PSI (0-1 scale)); higher = more stable (slower turnover); details: genetic background: wild type
Saccharomyces cerevisiae [2] = experiment: protein stability index of tFT-peptide fusion in deletion strain of DOA10 (PSI (0-1 scale)); higher = more stable (slower turnover)
Protocol: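 MPS profiling in S. cerevisiae of two library types built from selected 12-aa C-degron peptides (IN1, IN2, LN1, LN3, VN2, R1-R5, W1-W3, Atg1 and Rpa12 C-termini): saturation mutagenesis libraries and C-terminal +1 capping libraries (13 aa). Each peptide is fused to the C-terminus of a sfGFP-mCherry timer, after a GGGS linker. Cells are FACS-sorted into 8 mCherry/sfGFP bins and sequenced. PSI runs from 0 (unstable) to 1 (stable), measured once in wild type and in the das1Δ or doa10Δ background.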

Saccharomyces cerevisiae [3] = experiment: protein stability index of tFT-peptide fusion (C-terminal peptide) (PSI (0-1 scale)); higher = more stable (slower turnover)
Protocol: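 MPS profiling in S. cerevisiae of the tFT-X12 degron library: putative degron peptides plus stable controls, 12 aa, fused to the C-terminus of a sfGFP-mCherry timer. Cells are FACS-sorted into 8 mCherry/sfGFP bins and deep-sequenced. PSI runs from 0 (unstable) to 1 (stable). Backgrounds are wild type, das1Δ and doa10Δ at 30 °C, and wild type, das1Δ, cdc34-1 and cdc53-1 at 37 °C; 2-3 technical replicates each.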

Saccharomyces cerevisiae [4] = experiment: as above; details: genetic background: wild type; temperature: 30 C
Saccharomyces cerevisiae [5] = experiment: protein stability index of tFT-peptide fusion in deletion strain of DAS1 (PSI (0-1 scale)); higher = more stable (slower turnover)
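Throughout, for protein stability index of tFT-peptide fusion (C-terminal peptide): PSI is a weighted mean of sequencing reads over stability bins, variants kept only with over 10 reads, mCherry proximal and sfGFP distal, peptide attached via GGGS linker.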
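Throughout, for protein stability index of tFT-peptide fusion in deletion strain of DAS1: PSI is a weighted mean of each variant's read distribution over the sorted stability bins, computed only for variants having over 10 reads in total.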
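Throughout, for protein stability index of tFT-peptide fusion in deletion strain of DOA10: PSI per variant is the weighted mean of its sequencing read distribution over the sorted stability bins, counting only variants with over 10 reads summed across bins.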
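Throughout, for protein stability index of tFT-peptide fusion in wild type: PSI derived as read-weighted mean over the 8 sorting bins, only variants exceeding 10 total reads kept, mCherry placed adjacent to the peptide and sfGFP distal.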

Sequence | protein stability index (Saccharomyces cerevisiae [1]) | protein stability index (Saccharomyces cerevisiae [2]) | further results
ACTLPMCPLLLR | 0.318 | 0.678 | –
AIKLPMCPLLLR | 0.276 | 0.652 | –
AINLPMCPLLLR | 0.243 | 0.656 | –
AITAPMCPLLLR | 0.472 | 0.66 | –
AITDPMCPLLLR | 0.603 | 0.693 | –
AITEPMCPLLLR | 0.593 | 0.648 | –
AITLPMCDLLLR | 0.639 | 0.675 | –
AITLPMCELLLR | 0.511 | 0.676 | –
AITLPMCFLLLR | 0.0902 | 0.62 | –
AITLPMCKLLLR | 0.392 | 0.663 | –
AITLPMCPKLLR | 0.643 | 0.671 | –
AITLPMCPLHLR | 0.566 | 0.68 | –
AITLPMCPLILR | 0.238 | 0.656 | –
AITLPMCPLKLR | 0.549 | 0.668 | –
AITLPMCPLLLD | 0.608 | 0.684 | –
AITLPMCPLLLK | 0.269 | 0.653 | –
AITLPMCPLLLM | 0.505 | 0.545 | –
AITLPMCPLLRR | 0.62 | 0.717 | –
AITLPMCPLLSR | 0.573 | 0.594 | –
AITLPMCPLLTR | 0.561 | 0.606 | –
AITLPMCPLLYR | 0.529 | 0.652 | –
AITLPMCPLQLR | 0.608 | 0.68 | –
AITLPMCPLVLR | 0.233 | 0.646 | –
AITLPMCPMLLR | 0.392 | 0.661 | –
AITLPMLPLLLR | 0.125 | 0.633 | –
AITLPMQPLLLR | 0.238 | 0.639 | –
AITLPMTPLLLR | 0.229 | 0.644 | –

Sequence | protein stability index (Saccharomyces cerevisiae [1]) | protein stability index (Saccharomyces cerevisiae [2]) | further results
AITLPRCPLLLR | 0.265 | 0.662 | –
AIYLPMCPLLLR | 0.268 | 0.617 | –
AYTLPMCPLLLR | 0.171 | 0.657 | –
CITLPMCPLLLR | 0.118 | 0.635 | –
CIVSLPILLFFR | 0.0595 | 0.566 | –
CLCSLPILLFFR | 0.106 | 0.615 | –
CLFSLPILLFFR | 0.0583 | 0.581 | –
CLQSLPILLFFR | 0.0983 | 0.631 | –
CLVCLPILLFFR | 0.104 | 0.494 | –
CLVSLHILLFFR | 0.144 | 0.292 | –
CLVSLPCLLFFR | 0.064 | 0.639 | –
CLVSLPILGFFR | 0.625 | 0.661 | –
CLVSLPILIFFR | 0.0649 | 0.53 | –
CLVSLPILLAFR | 0.115 | 0.594 | –
CLVSLPILLDFR | 0.553 | 0.643 | –
CLVSLPILLFFD | 0.433 | 0.583 | –
CLVSLPILLFFL | 0.293 | 0.45 | –
CLVSLPILLFFQ | 0.313 | 0.53 | –
CLVSLPILLFFRK | 0.115 | 0.57 | –
CLVSLPILLFFRQ | 0.0783 | 0.362 | –
CLVSLPILLFFRV | 0.0545 | 0.413 | –
CLVSLPILLFFRW | 0.0557 | 0.473 | –
CLVSLPILLFFV | 0.206 | 0.385 | –
CLVSLPILLFHR | 0.481 | 0.637 | –
CLVSLPILLFIR | 0.0496 | 0.46 | –
CLVSLPILLFKR | 0.413 | 0.665 | –
CLVSLPILLFWR | 0.0447 | 0.638 | –

Sequence | protein stability index (Saccharomyces cerevisiae [1]) | protein stability index (Saccharomyces cerevisiae [2]) | further results
CLVSLPILLFYR | 0.116 | 0.585 | –
CLVSLPILSFFR | 0.581 | 0.658 | –
CLVSLPISLFFR | 0.101 | 0.656 | –
CLVSLPIYLFFR | 0.0617 | 0.607 | –
CLVSLPPLLFFR | 0.0903 | 0.661 | –
CLVSLPQLLFFR | 0.0822 | 0.655 | –
CLVSLSILLFFR | 0.183 | 0.286 | –
CLVSVPILLFFR | 0.064 | 0.565 | –
CLVSWPILLFFR | 0.0554 | 0.595 | –
CLWSLPILLFFR | 0.0887 | 0.594 | –
CMVSLPILLFFR | 0.0703 | 0.584 | –
GLAMCSVGCWFR | 0.268 | 0.661 | –
GLYCCSVGCWFR | 0.342 | 0.658 | –
GLYMCIVGCWFR | 0.214 | 0.364 | –
GLYMCSLGCWFR | 0.283 | 0.658 | –
GLYMCSMGCWFR | 0.321 | 0.676 | –
GLYMCSVACWFR | 0.228 | 0.441 | –
GLYMCSVGCAFR | 0.614 | 0.629 | –
GLYMCSVGCEFR | 0.594 | 0.625 | –
GLYMCSVGCQFR | 0.618 | 0.647 | –
GLYMCSVGCRFR | 0.625 | 0.654 | –
GLYMCSVGCWFE | 0.474 | 0.512 | –
GLYMCSVGCWFG | 0.456 | 0.478 | –
GLYMCSVGCWFP | 0.607 | 0.636 | –
GLYMCSVGCWFRG | 0.334 | 0.635 | –
PSLAASFWRVVG | 0.146 | – | protein stability index (Saccharomyces cerevisiae [3]; genetic background: cdc34-1, temperature: 37 C): 0.595 ± 0.1; protein stability index (Saccharomyces cerevisiae [3]; genetic background: cdc53-1, temperature: 37 C): 0.749 ± 0.016; protein stability index (Saccharomyces cerevisiae [3]; genetic background: das1 deletion, temperature: 30 C): 0.694 ± 0.051; protein stability index (Saccharomyces cerevisiae [3]; genetic background: das1 deletion, temperature: 37 C): 0.7397 ± 0.0053; protein stability index (Saccharomyces cerevisiae [3]; genetic background: doa10 deletion, temperature: 30 C): 0.102 ± 0.031; protein stability index (Saccharomyces cerevisiae [3]; genetic background: wild type, temperature: 30 C): 0.109 ± 0.037; protein stability index (Saccharomyces cerevisiae [3]; genetic background: wild type, temperature: 37 C): 0.243 ± 0.0024; protein stability index (Saccharomyces cerevisiae [4]): 0.197 ± 0.013; protein stability index (Saccharomyces cerevisiae [5]): 0.686
